Measured values taken from paper PMC3467059 (Nucleic Acids Research, 2012).

B1: σ54RI peptide fragment, residues 33–39 (Patch 2) (peptide, UniProt P06223 33-39, looked up)
peptide: LQQELQQ
B2: σ54RI peptide fragment, residues 18–25 (Patch 1) (peptide, UniProt P06223 18-25, looked up)
peptide: QLQQAIRL

How the values were obtained:
[1] = biological target: PspF1–275 T86S (E. coli, UniProt P37344 1-275, T86S); assay: native gel or EMSA
[2] = biological target: PspF1–275 F85Y (E. coli, UniProt P37344 1-275, F85Y); assay: native gel or EMSA

Binder	binding result [1]	binding result [2]
B1	binds	binds
B2		binds
